Measured values reported in US20190169232A1 (FEINSTEIN INSTITUTES FOR MEDICAL RESEARCH, published 2019).
Each block holds one binder with its values, some of them ahead of it.

What was measured:
[1] = target: T1, C1q purified from pooled normal human sera (human, UniProt P02746 28-253; P02747 29-245); assay: SPR kinetics, C1q immobilised on a CM5 chip, HMGB1 redox form as analyte in a concentration series, 1:1 fit
T1 construct: mature; Bought from Complement Technology, purified from serum; It names no B or C chains; Biotinylated for the bead assay; also called human C1q; first component of complement
T1 sequence (P02746 28-253, chain 2 of 2): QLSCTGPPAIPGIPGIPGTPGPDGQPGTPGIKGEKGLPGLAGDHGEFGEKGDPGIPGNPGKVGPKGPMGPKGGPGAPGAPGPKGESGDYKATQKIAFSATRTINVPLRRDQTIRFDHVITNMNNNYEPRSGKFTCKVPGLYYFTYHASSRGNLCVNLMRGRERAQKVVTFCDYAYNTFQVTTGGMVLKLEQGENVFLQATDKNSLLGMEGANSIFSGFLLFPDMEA
T1 sequence (P02747 29-245, chain 3 of 2): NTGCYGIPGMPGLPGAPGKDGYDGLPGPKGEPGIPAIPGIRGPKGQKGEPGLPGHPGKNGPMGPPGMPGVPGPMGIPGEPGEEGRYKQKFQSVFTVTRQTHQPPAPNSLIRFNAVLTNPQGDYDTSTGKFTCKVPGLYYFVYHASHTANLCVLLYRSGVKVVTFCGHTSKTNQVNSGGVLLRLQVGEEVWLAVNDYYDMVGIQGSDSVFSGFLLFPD
Description: A 1:1 mixture of N-hyrdoxysuccinimide and N-ethyl-N-(dimethyaminopropyl) carbodiimide was used to activate 2 flow-cells of the CM5 chip. […] The analyte (HMGB1) was diluted in 1× HBS-N+0.05% tween-20 buffer (filtered—0.22 um). Three redox states of HMGB1 were sequentially injected at a flow rate of 20 μl/min for 60 s at 25° C., the dissociation time was set for 3 minutes. […]

[2] = target: T1, C1q purified from pooled normal human …; assay: SPR (BIAcore T200), HMGB1 immobilized on a CM5 chip, C1q as analyte at 5 concentrations, 1:1 fit
Description: Surface Plasmon Resonance analysis (SPR): For real-time binding interaction studies, a BIAcore T200 instrument (GE Healthcare) was used. […] A 1:1 mixture of N-hydroxysuccinimide and N-ethyl-N-(dimethyaminopropyl) carbodiimide was used to activate 2 flow-cells of the CM5 chip. […] The analytes were diluted in 1× PBS+0.01% (vol/vol) tween-20 buffer. The analytes were sequentially injected at a flow rate of 30 μl/min for 60 s at 25° C. The KD was determined using the BIAcore evaluation software 2.0 (GE Healthcare) supposing a 1:1 binding ratio.

RAGE on human monocytes = target: T2, RAGE on human monocytes (human, UniProt Q15109 23-404); assay: proximity ligation assay on human monocytes, condition without C1q
T2 construct: whole, on cells
T2 sequence (Q15109 23-404): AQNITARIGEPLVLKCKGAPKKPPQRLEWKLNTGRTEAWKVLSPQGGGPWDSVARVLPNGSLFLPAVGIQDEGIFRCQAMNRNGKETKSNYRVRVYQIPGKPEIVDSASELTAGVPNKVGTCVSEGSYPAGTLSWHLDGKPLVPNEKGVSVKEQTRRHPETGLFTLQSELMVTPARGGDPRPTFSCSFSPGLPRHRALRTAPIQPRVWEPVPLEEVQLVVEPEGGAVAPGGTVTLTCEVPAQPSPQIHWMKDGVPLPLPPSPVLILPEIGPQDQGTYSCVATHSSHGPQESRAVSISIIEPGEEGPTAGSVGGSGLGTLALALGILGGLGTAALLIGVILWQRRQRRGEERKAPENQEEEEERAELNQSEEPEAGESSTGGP

[3] = target: T3, Human recombinant RAGE (hrRAGE), soluble RAGE (human, UniProt Q15109 24-344, limits assumed); assay: SPR (data not shown)
T3 construct: Called soluble RAGE (sRAGE) in the SPR and bead experiments; also called sRAGE; Receptor for Advanced Glycation Endproducts
T3 sequence (Q15109 24-344 limits assumed): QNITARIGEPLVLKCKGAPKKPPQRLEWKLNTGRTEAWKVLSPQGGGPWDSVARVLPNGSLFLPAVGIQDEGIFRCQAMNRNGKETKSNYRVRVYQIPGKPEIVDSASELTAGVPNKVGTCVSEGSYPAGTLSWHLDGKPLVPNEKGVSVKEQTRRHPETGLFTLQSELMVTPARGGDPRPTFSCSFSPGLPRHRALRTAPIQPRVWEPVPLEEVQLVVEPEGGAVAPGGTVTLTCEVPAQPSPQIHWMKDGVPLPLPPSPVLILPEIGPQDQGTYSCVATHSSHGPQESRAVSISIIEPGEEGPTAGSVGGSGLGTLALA

B1: Disulfide HMGB1 (ligand, UniProt P09429 1-215, looked up)
chain: MGKGDPKKPRGKMSSYAFFVQTCREEHKKKHPDASVNFSEFSKKCSERWKTMSAKEKGKFEDMAKADKARYEREMKTYIPPKGETKKKFKDPNAPKRPPSAFFLFCSEYRPKIKGEHPGLSIGDVAKKLGEMWNNTAADDKQPYEKKAAKLKEKYEKDIAAYRAKGKPDAAKKGVVKAEKSKKKKEEEEDEEDEEDEEEEEDEEDEDEEEDDDDE
modifications: disulfide bond between C23 and C45, with a free cysteine at C106
notes: also called disulfide form of HMGB1
Kd [1]: 210 nM

B2: Recombinant HMGB1 (Calmodulin Binding Protein Epitope, Cbp tagged) (ligand, human, UniProt P09429 1-215, looked up, not shown: small tags and cut ends)
chain: B1 chain
notes: also called High Mobility Group Box 1
Kd [2]: 200 nM

B3: All-thiol HMGB1 (ligand, not shown: small tags and cut ends)
chain: B1 chain
modifications: All-thiol form: C23, C45 and C106 all stand as free reduced thiols, with no C23-C45 disulfide. The letters are unchanged.
notes: Analyte in the SPR assays on immobilised C1q; also called reduced HMGB1
Kd [1]: 1060 nM

The remaining lines, values ahead:

binding result (RAGE on human monocytes): no binding
B4: LAIR-1 on human monocytes (receptor, UniProt Q6GTX8 22-287, looked up)
chain: QEEDLPRPSISAEPGTVIPLGSHVTFVCRGPVGVQTFRLERDSRSTYNDTEDVSQASPSESEARFRIDSVREGNAGLYRCIYYKPPKWSEQSDYLELLVKESSGGPDSPDTEPGSSAGPTQRPSDNSHNEHAPASQGLKAEHLYILIGVSVVFLFCLLLLVLFCLHRQNQIKQGPPRSKDEEQKPQQRPDLAVDVLERTADKATVNGLPEKDRETDTSALAAGSSQEVTYAQLDHWALTQRTARAVSPQSTKPMAESITYAAVARH
notes: whole, on cells; also called Leukocyte-Associated Ig-like Receptor 1; CD305

binding result [3]: no binding
B5: C1q tail (C1q collagen-like tail) purified from whole C1q (other)
chain 1: EDLCRAPDGKKGEAGRPGRRGRPGLKGEQGEPGAPGIRTGIQGLKGDQGEPGPSGNPGKVGYPGPSGPLGARGIPGIKGTKGSPGNI
chain 2: not shown
chain 3: not shown
notes: domain: collagen-like tail; Fragment prepared from whole serum C1q 'as previous described (22)'; also called C1q collagen tail
